The series relates to Histone III (type ss from calf thymus).

Consider “His-tagged Pim-2 (purified recombinant human Pim-2, expressed in E. coli)”, for which the “Incorporation of 33P into Histone (in vitro kinase assay, 15, 30 and 60 min)” value is “purified recombinant Pim-2 is active in phosphorylating Histone”.
